Data on 40 sequences can be found in the nanobody polyreactivity screen of Harvey et al. (2022).

The data set can be described thus: yeast display, Sf9 membrane polyspecificity reagent, FACS + sequencing; frameworks hold sequencing errors. The method in brief:
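In a synthetic yeast display library (Saccharomyces cerevisiae BJ5465), nanobody expression was induced with galactose for 36–48 hours. FACS gates were set low and high (top ~1%) using anti-HA fluorescence for expression and streptavidin fluorescence for binding of the Sf9 membrane reagent. Each polyreactivity label is drawn from the gate of origin.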
Regarding “QVQLVESGGGLVQAGGSLRLSCAASGFIFSYYAMGWYRQAPGKERELVAAISSGGSTYYADSVKGRFTISRDNAKNSVYLQMNSLKPEDTAVYYCAAAIWYIILYFVRRTEHGYWGQGTQVTVSS”, the “polyreactivity (PSR sort gate)” value was “low polyreactivity”.
Next, “QVQLVESGGGLVQAGGSLRLSCAASGFIFTDNAMGWYRQAPGKESEFVAAITYSGGSTYYADSVKGRFTISRDNAKNTVYLQMNSLKPEDTAVYYCNKDFFPAPVVVTAYEYEYWGQGSQVTVSS”: “low polyreactivity”; “QVQLVESGGGLVQAGGSLRLSCAASGFIFTGYAMGWYRQAPGKERELVATISRRGGSTYYADSVKGRFTISRDNAKNTVYLQMNSLKPEDTAVYYCAAQRTLYRSGFDSWGQGTQVTVSS”: “high polyreactivity”; “QVQLVESGGGLVQAGGSLRLSCAASGFIFTIYAMGWYRQAPGKERELVAAISSGGSTTYADSVKGRFTISRDNAKNTVYLQMNSLKPEDTAVYYCNAGVDPFGSLLPFTDQYDYWGQGTQVTVSS”: “low polyreactivity”.
Then “QVQLVESGGGLVQAGGSLRLSCAASGFIFTNVMGWYRQAPGKERELVAAISGRGTSTYYADSVKGRFTISRDNAKNTVYLQMNSLKPEDTAVYYCAAYFTSRLDYWGQGTQVTVSS”, with “high polyreactivity”.
For “QVQLVESGGGLVQAGGSLRLSCAASGFIFTPYAMGWYRQAPGKERELVAAIRSGTSTNYADSVKGRFTISRDNAKNTVYLQMNSLKPEDTAVYYCAAEEGLIDGRAWYGYWGQGTQVTVSS”, the “polyreactivity (PSR sort gate)” value is recorded as “low polyreactivity”.
On to “QVQLVESGGGLVQAGGSLRLSCAASGFIFTPYAMGWYRQAPGKERELVAAITWRGARTYYADSVKGRFTISRDIAKNSVYLQMNSLKPEDTAVYYCAALSRRSYAPRDDYWGQGTQVTVSS”, for which the “polyreactivity (PSR sort gate)” value is recorded as “high polyreactivity”.
Then “QVQLVESGGGLVQAGGSLRLSCAASGFIFTPYTMGWYRQAPGKERELVAAITDGSSTYYADSVKGRFTISRDNAKNTVYLQMNSLKPEDTAVYYCAAVPRYQYGYWGQGTQVTVSS”, with “low polyreactivity”; and “QVQLVESGGGLVQAGGSLRLSCAASGFIFTQYAMGWYRQAPGKERELVAGITSSGNTYYADSVKGRFTISRDNAKNPVYLQMNSLKPEDTAVYYCAARSASRRMDYWGQGTQVTVSS”, with “high polyreactivity”; and “QVQLVESGGGLVQAGGSLRLSCAASGFIFTRNAMGWYRQAPGKERELVAAISASGGRTYYADSVKGRFTISRDNAKNTVYLQMNSLKPEDTAVYYCNTGIYVARSTYGRFKYDYWGQGTQVTVSS”, with “high polyreactivity”.
Then “QVQLVESGGGLVQAGGSLRLSCAASGFIFTRNAMGWYRQAPGKERELVATISRSGSSTSYADSVKGRFTISRDNAKNTVYLQMNRLKPEDTAVYYCAATYIYRHSVISRYDYWGQGTQVTVSS”, with “high polyreactivity”; and “QVQLVESGGGLVQAGGSLRLSCAASGFIFTSYARGWYRQAPGKDRELVAAITRSGASTSYADSVKGRFTISRDNAKNTVYLQMNSLKPEDTAVYYCAAKAPLPRYYVPRYDYWGQGTQVTVSS”, with “high polyreactivity”; and “QVQLVESGGGLVQAGGSLRLSCAASGFIFTTYAMGWSRQAPGKEWELVAAISTSGGRTYYADSVKGRFTISRDNAKNTVYLQMNSLKPEDTAVYYCNTYSYYSYDWGQGTQVTVSS”, with “high polyreactivity”.
With “QVQLVESGGGLVQAGGSLRLSCAASGFIFTTYDMGWYRQAPGKEMELVAAITGSGGRTYYADSVKGRFTISRDNAKNTVYLQMNSLKPEDTAVYYCAARWGNVRFRYGYWGQGTQVTVSS”, the “polyreactivity (PSR sort gate)” value is recorded as “high polyreactivity”.
On to “QVQLVESGGGLVQAGGSLRLSCAASGFIFTWYAMGWYRQAPGKEREFVAAITSRGTSTYYADSVKGRFTISRDNAKNTVYLQMNSLKPEDTAVYYCAARASYTRRHVGRPYDYWGQGTQVTVSS”, for which the “polyreactivity (PSR sort gate)” value was “high polyreactivity”.
Next, “QVQLVESGGGLVQAGGSLRLSCAASGFIFTWYAMGWYRQAPGKEREFVAGISRSGGRTYYADSVKGRFTISRDNAKNTVYLHVNSLKPEVTAVFYCGAKYYIGFWLRDYYYWGQCTQVTVSS”: “high polyreactivity”.
Then “QVQLVESGGGLVQAGGSLRLSCAASGFIFTWYTMGWYRQAPGKERELVAAITSGGNTNYADSVKGRFTISRDNAKNTVYLQMNSLKPEDTAVYYCARGYLASRLKFAKYDYWGQGTQVTVSS”, with “high polyreactivity”; and “QVQLVESGGGLVQAGGSLRLSCAASGFIFTYNDMGWYRQAPGKERELVASITWDGGRTYYADAVKGRCTISRDNAKNTVYLQMISLKPEDTADYYCAKRLGGSPIQARGDYWGQGTQVTVSS”, with “low polyreactivity”; and “QVQLVESGGGLVQAGGSLRLSCAASGFIFVAYAMGWSRQAPGKERELVAAITSSGGRTYYADSVKGRFTISRDNAKNTVYLQMNSLKPEDTAVYYCAARVYRSAKGYNYWGQGTQVTVSS”, with “high polyreactivity”.
Regarding “QVQLVESGGGLVQAGGSLRLSCAASGFIFVDYAMGWYRQAPGTERELVAAITSSGDRTYYADSVKGRFTISRDNAKNTVYLQMNSLKPEDTAVYYCNADWSTAWYTSYDYWGQGTQVTVSS”, the “polyreactivity (PSR sort gate)” value was “low polyreactivity”.
Next, “QVQLVESGGGLVQAGGSLRLSCAASGFIFVFNAMGWYRQAPGKERELVAAITWSAGSTYYADSVKGRFTISRDTAKKTVDLQKNSLKPEDTAVYYCAADNWPWPEKPDKSILYDYWGQGTQVTVSS”: “low polyreactivity”; “QVQLVESGGGLVQAGGSLRLSCAASGFIFVFYDMGWYRQAPGKERELVAGITRNDGSTYYADSVKGRFKISRDNAKNTVYLQMNSLKPEDTAVYYCAAESAGSYLDYYWAYGYWGQGTQVTVSS”: “low polyreactivity”.
Next, “QVQLVESGGGLVQAGGSLRLSCAASGFIFVKNAMGWYRQAPGKERELVATINCGSSTTYADSVKGRFTISRDNAKNTVYLQMNSLKPEDTAVYYCNADDVENWTEYDYWGQGTQVTVSS”: “low polyreactivity”; “QVQLVESGGGLVQAGGSLRLSCAASGFIFVLNVMGWYRQAPGKERELVAAITWRGTSTYYADSVKGRFTISRDNAKNTVYLQMNSLKPEDTAVYYCAVKGFSTRSYREFDYWGQGTQVTVSS”: “low polyreactivity”.
Next, “QVQLVESGGGLVQAGGSLRLSCAASGFIFVLYAMGWYRQAPRKERELVAAISRGGSSTYYADSVKGRFTISRDNAKNTVYLQMNSLKPEATAVYYCAARIRNWPAMDYWGQGTQVTVSS”: “high polyreactivity”; “QVQLVESGGGLVQAGGSLRLSCAASGFIFVNNVMGWYRQAPGKERELVAAISRRGGSTYYADSVKGRFTISRDNAKNTVYLQMNSLKPEDTAVYYCARRGPDFSWKYDYWGQGTQVTVSS”: “high polyreactivity”.
With “QVQLVESGGGLVQAGGSLRLSCAASGFIFVVYAMGWYRQAPGKERELVATISSGGGTYYADSVKGRFTISRDNAKNTVYLQMNSLKPEDTAVYYCAARRRRLYHFGGNNYWGQGTQVTVSS”, the “polyreactivity (PSR sort gate)” value is recorded as “high polyreactivity”.
Consider “QVQLVESGGGLVQAGGSLRLSCAASGFIFVVYAMGWYRQAPGTERDLVATISSGGGTYYADSVKGRFTISLDNAKNTVYLQMNSLKPEDTAVYYCAARRRRLYHFGGNNYCGQGTQVTVSS”, for which the “polyreactivity (PSR sort gate)” value is given as “high polyreactivity”.
Then “QVQLVESGGGLVQAGGSLRLSCAASGFIFVWNAMGWYRQAPGKERELVANIRDGGITYADSVKGRFTITRDNAKNTVYLQMNSLKPEDTAVYYCARTNFYRSYEPGGRFYNYDYWGQGTQVTVSS”, with “low polyreactivity”.
On to “QVQLVESGGGLVQAGGSLRLSCAASGFIFVYGNVMGWYRQAPGKERELVASITSDGGSTNYADSVKGRFTISRDNAKNTVYLQMNSLKPEDTAVYYCNADVPRGFGGEYDYWGQGTQVTVSS”, for which the “polyreactivity (PSR sort gate)” value was “low polyreactivity”.
As for “QVQLVESGGGLVQAGGSLRLSCAASGFIFVYYAMGWYRQAPGKERELVAAISGHGGRTYYADSVKGRFTISRDNAKNTVYLQLNSLKPEDTAVYYCAALLYWRGYGYNYWGQGTQVTVSS”, the “polyreactivity (PSR sort gate)” value is on record as “high polyreactivity”.
Then “QVQLVESGGGLVQAGGSLRLSCAASGFIFWGNAMGWYRQAPGKERELVAAINYSGGRTYYSDSVKGRFTISRDNAKNTVYLQMNSLKPEDTAVYYCAATGPVNRASYDYWGQGTQVTVSS”, with “high polyreactivity”; and “QVQLVESGGGLVQAGGSLRLSCAASGFIFWGNAMGWYRQAPGKERELVAAITYSGDRTYYADSVKGRFTISRDNAKNTVYLQMNSLKPEDTAVYYCNADLALRSRYGEYDYWGQGTQVTVSS”, with “high polyreactivity”.
On to “QVQLVESGGGLVQAGGSLRLSCAASGFIFWKNAMGWYRQAPGKERELVAAISWSGGRTYYADSVKGRFTISRDNAKNTFYLQINSLKPEETAVYYCNAAGRYKPGAPYDYWGQGTQVTVSS”, for which the “polyreactivity (PSR sort gate)” value is “low polyreactivity”.
Then “QVQLVESGGGLVQAGGSLRLSCAASGFIFWLYAMGRYRQAPGKERELVAAISNGGSTNYADSVKGRFTISRDNAKNTVYLQMNSLKPEDTAVYYCAAKFPRRFYWYDYWGQGTQVTVSS”, with “high polyreactivity”.
Then “QVQLVESGGGLVQAGGSLRLSCAASGFIFWQYTMGWYRQAPGKERELVAAITWRGTRTYADSVKGRFTISRDNAKNTVYLQMNSLKPEDTAVYYCAAREYYHGPDGGYYGYDYWGQGTQVTVSS”, with “high polyreactivity”; and “QVQLVESGGGLVQAGGSLRLSCAASGFIFWRYAMGWYRQAPGKERELVASITSTGGSTYYADSVKGRFTISRDNAKNTVYLQMNSLKPEDTAVYYCAADTFVWADWSWHYYWGQGTQVTVSS”, with “high polyreactivity”; and “QVQLVESGGGLVQAGGSLRLSCAASGFIFWYNAMGWYRQAPGKERELVATISVASTYADSVKGRFTISRDNAKNTVYLQMNSLKPEDTAVYYCAADWAGWEGYRMDYWGQGTQVTVSS”, with “low polyreactivity”.
Then “QVQLVESGGGLVQAGGSLRLSCAASGFIFWYYAMGWYRQAPGKERELVAGITSGGSTNYADSVKGRFTISRDNAKNSVYLQMNSLKPEDTAVYYCAAAPYGGFGRGYDYWGQGTQVTVSS”, with “high polyreactivity”; and “QVQLVESGGGLVQAGGSLRLSCAASGFIFWYYAMGWYRQAPGKERELVARITRIGGRTYYADSVKGRFTISRDNAKNTVYLQMNSLKPEDTAVYYCAKDVDKYRYDYWGQGTQVTVSS”, with “high polyreactivity”.
